Consider seven molecules from patent US20220160843A1 (priority 2019, published 2022).

Where two headings read alike, the source gives them in different places.

The subject of test [1] is carbapenem-resistant P. aeruginosa strains. As to the kind of experiment: Resensitization of carbapenem-resistant clinical strains using carbapenems in combination with lysins. In kind it is cell-based. The settings on record: for MIC: Pseudomonas aeruginosa, meropenem alone (GN121 checkerboard). The procedure:
(§1) The checkerboard assays is based on a modification of the CLSI method for MIC determination by broth microdilution (26, 29). Checkerboards were constructed by first preparing columns of a 96-well polypropylene microtiter plate, in which each well had the same amount of antibiotic diluted 2-fold along the horizontal axis. […] Summation fractional inhibitory concentrations (ΣFICs) were calculated for each drug and the minimum ΣFIC value (ΣFICmin) was used to determine synergy. ΣFICs were calculated as follows: ΣFIC=FIC A+FIC B, where FIC A is the MIC of each antibiotic in the combination/MIC of each antibiotic alone, and FIC B is the MIC of each GN lysin in the combination/MIC of each GN lysin alone. The combination is considered synergistic when the ΣFIC is ≤0.5, strongly additive when the ΣFIC is >0.5 to <1, additive with the ΣFIC is 1−<2, and antagonistic when the ΣFIC is ≥2.
Up to seven carbapenem-resistant isolates were assessed. […] See Clinical and Laboratory Standards Institute (CLSI), CLSI. […] M100 Performance Standards for Antimicrobial Susceptibility Testing; 29th Edition. Clinical and Laboratory Standards Institute, Wayne, Pa.

Test [2] deals with P. aeruginosa strain ATCC 17647. Briefly: Minimal Biofilm Eradicating Concentration (MBEC), Calgary Biofilm Device. The settings on record: 24 h biofilm, 24 h treatment; minimum concentration removing >95% of biofilm biomass (crystal violet). In kind it is cell-based, Pseudomonas aeruginosa. From the text: All samples were examined in triplicate.
Test [3] relates to P. aeruginosa. As to the kind of experiment: Minimal inhibitory concentration (MIC), modified CLSI broth microdilution in CAA or CAA/HuS. In kind it is cell-based, Pseudomonas aeruginosa. Conditions: for MIC (μg/mL) in CAA: CAA media; for MIC (μg/mL in CAA/HuS) / MIC value in CAA/HuS: CAA supplemented with 25% human serum.
Test [4] deals with P. aeruginosa. Briefly: Time-kill assay of GN lysin activity. Conditions: for Log10 CFU/mL T = 3 hr / Log10 CFU/mL T = l hr: lysin 10 μg/mL, T = 0 7.8; for Log10 CFU/mL T = 3 hr: buffer control 7.2, limit of detection 3.7; for Log10 CFU/mL T = l hr: buffer control 7.7. In kind it is cell-based, Pseudomonas aeruginosa. The procedure: All treatments were incubated at 37° C. with aeration.

In test [5] the test system is carbapenem-resistant clinical strain, WC-452. Briefly: Checkerboard assay to examine synergy with antibiotics in CAA/HuS. In kind it is cell-based, P. aeruginosa. On the procedure: Fractional inhibitor concentration index (FICI) values were determined for all combinations; values of <0.5 indicate synergy.
as §1

Where [6] appears, read: CAA/HuS, ‡ indicates bactericidal activity.
[7] abbreviates: HEPES buffer, ‡ indicates bactericidal activity.

For `C[C@@H](O)[C@H]1C(=O)N2C(C(=O)O)=C(SCCN=CN)C[C@H]12` [Imipenem, imipenem, reference compound], the “IMIPENEM MIC Combination” value is given as 1 (S) μg/mL in test [1] (isolate PA19, imipenem in combination with GN121); 0.5 (S) μg/mL in test [1] (isolate PA19, imipenem in combination with GN123); 0.5 (S) μg/mL in test [1] (isolate PA20, imipenem in combination with GN121); 1 (S) μg/mL in test [1] (isolate PA20, imipenem in combination with GN123); 1 (S) μg/mL in test [1] (isolate PA21, imipenem in combination with GN121); 0.5 (S) μg/mL in test [1] (isolate PA21, imipenem in combination with GN123). Further, the “IMIPENEM MIC Combination” value in test [1] (isolate PA22, imipenem in combination with GN121) is recorded as 2 (S) μg/mL; in test [1] (isolate PA22, imipenem in combination with GN123), 2 (S) μg/mL; in test [1] (isolate PA23, imipenem in combination with GN123), 0.25 (S) μg/mL; in test [1] (isolate PA24, imipenem in combination with GN121), 1 (S) μg/mL; in test [1] (isolate PA24, imipenem in combination with GN123) it was 2 (S) μg/mL; in test [1] (isolate WC-452, imipenem in combination with GN123) it was 1 (S) μg/mL.

With `C[C@@H](O)[C@H]1C(=O)N2C(C(=O)O)=C(S[C@@H]3CN[C@H](C(=O)N(C)C)C3)[C@H](C)[C@H]12` [Meropenem, meropenem, reference compound], the MIC in test [1] (GN121, read-out: Meropenem MIC Alone, isolate PA19) is 32 µg/mL; in test [1] (GN121, read-out: Meropenem MIC Alone, isolate PA21), 32 µg/mL; in test [1] (GN121, read-out: Meropenem MIC Alone, isolate PA22), 16 µg/mL; in test [1] (GN121, read-out: Meropenem MIC Alone, isolate PA23), 16 µg/mL; in test [1] (GN121, read-out: Meropenem MIC Alone, isolate PA24), 32 µg/mL; in test [1] (GN121, read-out: Meropenem MIC Alone, isolate WC-452), 16 µg/mL. Also, the “Meropenem MIC Combination” value was 1 µg/mL in test [1] (isolate PA19, meropenem in combination with GN121); 0.5 (S) μg/mL in test [1] (isolate PA19, meropenem in combination with GN123); 1 µg/mL in test [1] (isolate PA20, meropenem in combination with GN121); 0.5 (S) μg/mL in test [1] (isolate PA20, meropenem in combination with GN123); 2 µg/mL in test [1] (isolate PA21, meropenem in combination with GN121); 1 (S) μg/mL in test [1] (isolate PA21, meropenem in combination with GN123). Also, the “Meropenem MIC Combination” value was 1 µg/mL in test [1] (isolate PA22, meropenem in combination with GN121); 1 (S) μg/mL in test [1] (isolate PA22, meropenem in combination with GN123); 2 µg/mL in test [1] (isolate PA23, meropenem in combination with GN121); 0.5 (S) μg/mL in test [1] (isolate PA23, meropenem in combination with GN123); 1 µg/mL in test [1] (isolate PA24, meropenem in combination with GN121); 2 (S) μg/mL in test [1] (isolate PA24, meropenem in combination with GN123). Moreover, the “Meropenem MIC Combination” value in test [1] (isolate WC-452, meropenem in combination with GN121) is 1 µg/mL; in test [1] (isolate WC-452, meropenem in combination with GN123), 1 (S) μg/mL.

B1: GN146: Modified GN4, amino acid substitutions (K99D, R115H), SEQ ID NO: 4 (protein)
chain: MRTSQRGIDLIKSFEGLRLSAYQDSVGVWTIGYGTTRGVTRYMTITVEQAERMLSNDIQRFEPELDRLAKVPLNQNQWDALMSFVYNLGAANLASSTLLDLLNKGDYQGAADQFPHWVNAGGKRLDGLVKRRAAERALFLEPLS
Regarding B1, in test [2], the “MBEC” value was determined as 2 µg/mL. Moreover, in the test on P. aeruginosa [3], the “MIC (μg/mL) in CAA” value is 2 µg/mL, the “MIC (μg/mL in CAA/HuS)” value is 2 µg/mL and the MIC value in CAA/HuS came to 2 µg/mL. In addition, the “Log10 CFU/mL T = 3 hr” value with P. aeruginosa [4] (setting [6]) is given as 4.0‡ Log10 CFU/mL. The “Log10 CFU/mL T = l hr” value with P. aeruginosa [4] (CAA/HuS) came out at 5.9 Log10 CFU/mL. Further, in the test with P. aeruginosa [4] (setting [7]), the “Log10 CFU/mL T = 3 hr” value is recorded as <3.7‡ Log10 CFU/mL and the “Log10 CFU/mL T = l hr” value was 6.7 Log10 CFU/mL.

B2: GN156: Modified GN4, addition of N-terminal peptide GPRRPRRPGRRAPV, SEQ ID NO: 6 (protein)
chain: GPRRPRRPGRRAPVMRTSQRGIDLIKSFEGLRLSAYQDSVGVWTIGYGTTRGVTRYMTITVEQAERMLSNDIQRFEPELDRLAKVPLNQNQWDALMSFVYNLGAANLASSTLLKLLNKGDYQGAADQFPRWVNAGGKRLDGLVKRRAAERALFLEPLS
In the case of B2, the “MBEC” value in test [2] was determined as 0.5 µg/mL. Also, in the test with P. aeruginosa [3], the “MIC (μg/mL) in CAA” value was determined as 32 µg/mL and the “MIC (μg/mL in CAA/HuS)” value is 2 µg/mL. For the same molecule, the “Log10 CFU/mL T = 3 hr” value with P. aeruginosa [4] (setting [6]) is <3.7‡ Log10 CFU/mL. Also, the “Log10 CFU/mL T = l hr” value in the test on P. aeruginosa [4] (CAA/HuS) stood at 5.7 Log10 CFU/mL. Moreover, in the test with P. aeruginosa [4] (setting [7]), the “Log10 CFU/mL T = 3 hr” value is <3.7‡ Log10 CFU/mL and the “Log10 CFU/mL T = l hr” value turned out to be 5.7 Log10 CFU/mL.

B3: GN150: Native lysin, WP_034684053.1/VanY, SEQ ID NO: 19 (protein, listed as Acinetobacter sp.)
chain: MSFKLGKRSLSNLEGVHPDLIKVVKRAIELTECDFTVTEGLRSKERQAQLLKEKKTTTSNSRHLTGHAVDLAAWVNNTVSWDWKYYYQIADAMKKAASELNVSIDWGGDWKKFKDGPHFELTWSKYPIKGAS
Consider B3, for which the “MBEC” value in test [2] stood at 0.25 µg/mL. Further, in the test on P. aeruginosa [3], the “MIC (μg/mL) in CAA” value was determined as 2 µg/mL. Also, in the test on P. aeruginosa [3], the “MIC (μg/mL in CAA/HuS)” value stood at 32 µg/mL. The “synergy with antibiotics in the checkerboard assay” value in test [5] is on record as “synergize with a range of antibiotics”. Besides, the “FICI, Amikacin” value in test [5] (lysin + amikacin) was determined as 0.313. For the same molecule, the “FICI, Azithromycin” value in test [5] (lysin + azithromycin) is on record as 0.125. Further, the “FICI, Aztreonam” value in test [5] (lysin + aztreonam) amounted to 0.188. Further, the “FICI, Ciprofloxacin” value in test [5] (lysin + ciprofloxacin) worked out at 0.250. Further, the “FICI, Colistin” value in test [5] (lysin + colistin) stood at 0.094. Further, in test [5] (lysin + fosfomycin), the “FICI, Fosfomycin” value is listed as 0.375. The “FICI, Gentamicin” value in test [5] (lysin + gentamicin) stood at 0.375. Also, the “FICI, Imipenem” value in test [5] (lysin + imipenem) worked out at 0.375. Also, the “FICI, Piperacillin” value in test [5] (lysin + piperacillin) is recorded as 0.500. In addition, the “FICI, Rifampicin” value in test [5] (lysin + rifampicin) is reported as 0.094. For the same molecule, in test [5] (lysin + tobramycin), the “FICI, Tobramycin” value stood at 0.500. Moreover, the “bactericidal activity in the time-kill assay format” value in the test on P. aeruginosa [4] (3-hour timepoint, 10 μg/mL, in either CAA/HuS or HEPES buffer) is recorded as “bactericidal activity”. The “Log10 CFU/mL T = 3 hr” value in the test with P. aeruginosa [4] (setting [6]) and with P. aeruginosa [4] (setting [7]) was <3.7‡ Log10 CFU/mL in each case. Further, the entries for the “Log10 CFU/mL T = l hr” value in the test on P. aeruginosa [4] (CAA/HuS) and in the test with P. aeruginosa [4] (setting [7]) were 6.0 Log10 CFU/mL and 5.7 Log10 CFU/mL, respectively.

B4: GN54: Modified GN4, N-terminal peptide KRKKRKKRK with linker, SEQ ID NO: 8 (protein)
chain: KRKKRKKRKAGAGAGAGAGAGAGAGASMRTSQRGIDLIKSFEGLRLSAYQDSVGVWTIGYGTTRGVTRYMTITVEQAERMLSNDIQRFEPELDRLAKVPLNQNQWDALMSFVYNLGAANLASSTLLKLLNKGDYQGAADQFPRWVNAGGKRLDGLVKRRAAERALFLEPLS
Take B4: in the test with P. aeruginosa [3], the “MIC (μg/mL) in CAA” value turned out to be 64 µg/mL, the “MIC (μg/mL in CAA/HuS)” value turned out to be 2 µg/mL and the MIC value in CAA/HuS came to 2 µg/mL. The activity in serum entry with P. aeruginosa [3] (human serum) is given as “does have activity in serum”.

B5: GN94: Modified GN37, N-terminal peptide KFFKFFKFFK with linker, SEQ ID NO: 14 (protein)
chain: KFFKFFKFFKAGAGAGAGAGAGAGAGASMTYTLSKRSLDNLKGVHPDLVAVVHRAIQLTPVDFAVIEGLRSVSRQKELVAAGASKTMNSRHLTGHAVDLAAYVNGIRWDWPLYDAIAVAVKAAAKELGVAIVWGGDWTTFKDGPHFELDRSKYR
As for B5, the “MBEC” value in test [2] is 2 µg/mL. Besides, in the test with P. aeruginosa [3], the “MIC (μg/mL) in CAA” value was 16 µg/mL, the “MIC (μg/mL in CAA/HuS)” value came out at 2 µg/mL and the MIC value in CAA/HuS was 2 µg/mL. Moreover, the “Log10 CFU/mL T = 3 hr” value with P. aeruginosa [4] (setting [6]) is reported as <3.7‡ Log10 CFU/mL. Further, in the test on P. aeruginosa [4] (CAA/HuS), the “Log10 CFU/mL T = l hr” value is recorded as 6.4 Log10 CFU/mL. In the test with P. aeruginosa [4] (setting [7]), the “Log10 CFU/mL T = 3 hr” value was <3.7‡ Log10 CFU/mL and the “Log10 CFU/mL T = l hr” value amounted to 6.0 Log10 CFU/mL.

One may read the MIC as the lowest concentration found to suppress growth.
